Article PMC13537762

Target: respiratory complex III (mouse (endogenous in liver mitochondria))
Assay: native gel or EMSA; blue native PAGE (3-12% Bis-Tris) of digitonin-solubilised isolated liver mitochondria from control or CLS-LKO mice (standard chow); western blotting with a supercomplex antibody cocktail or subunit-specific antibodies

How did the stoichiometry N turn out when respiratory complex III was run?
The stoichiometry N was 2.
